Earlier results on one substance are cited in PMC4203807.

For this data set, the target named is clathrin heavy chain N-terminal domain (Rattus norvegicus) (UniProt P11442).
Sequence of UniProt P11442 (P11442 1-363): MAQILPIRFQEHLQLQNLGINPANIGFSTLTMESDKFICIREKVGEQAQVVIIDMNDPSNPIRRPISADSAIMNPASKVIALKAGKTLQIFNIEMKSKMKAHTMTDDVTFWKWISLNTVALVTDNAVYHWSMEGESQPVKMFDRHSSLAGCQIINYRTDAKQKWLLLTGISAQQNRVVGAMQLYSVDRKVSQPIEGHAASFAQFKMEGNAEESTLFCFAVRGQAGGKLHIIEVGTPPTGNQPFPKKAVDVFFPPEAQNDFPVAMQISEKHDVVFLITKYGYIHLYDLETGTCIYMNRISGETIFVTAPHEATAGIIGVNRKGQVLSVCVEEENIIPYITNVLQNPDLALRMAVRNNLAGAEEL

As to AP180 623-680 (from UniProt Q05140), the Kd was 250 µM.

The Kd is the constant that tells how readily two partners part at equilibrium.
